One assay has as its system luciferase activity. Description: Doxycycline-dependent regulation of luciferase in HeLa cells, transient transfection of rtTA2-34R^S or rtTA2. It is filed as cell-based. From the text: The synthetic gene encoding rtTA2-34R^S was cloned into pUHD15-1 and expression was examined in HeLa cells.
Another assay concerns tetO DNA. In words: DNA retardation experiment with radioactively labeled tetO DNA. In kind it is binding. The conditions noted are these: produced in HeLa cells; compared with rtTA2. From the text:
Cellular material from cells transfected as described above was also used to compare the binding of rtTA2-34R and rtTA2 (rtTA fused to 3 minimal activation domains) to operator DNA in DNA retardation experiments.
rtTA2 and rtTA2-34R^S were produced in HeLa cells and exposed to radioactively labeled tetO DNA in presence (+) and absence (−) of Dox.

B1: rtTA2-34R^S: first 206 amino acids of rtTA-34R fused to 3 minimal VP-16 activation domains (FFF), synthetic gene with human codon frequencies, SEQ ID NO: 5 (protein)
chain: MSRLDKSKVINSALELLNGVGIEGLTTRKLAQKLGVEQPTLYWHVKNKRALLDALPIEMLDRHHTHFCPLEGESWQDFLRNNAKSFRCALLSHRDGAKVHLGTRPTEKQYETLENQLAFLCQQGFSLENALYALSAVGHFTLGCVLEEQEHQVAKEERETPTTDSMPPLLRQAIELFDRQGAEPAFLFGLELIICGLEKQLKCESGGPADALDDFDLDMLPADALDDFDLDMLPADALDDFDLDMLPG
Take B1: the “induction in cells treated with Dox” value in the assay on luciferase activity was “up to 20 fold”. For the same molecule, the “luciferase activity in relative light units, + Dox” value with luciferase activity (+ Dox) was found to be 20.325. Also, the “luciferase activity in relative light units, − Dox” value with luciferase activity (− Dox) is listed as 1. Moreover, the “residual binding to operator DNA (binding in the absence of Dox)” value in the assay on tetO DNA was “greatly reduced”.

The values above are taken from patent US7541446B2, “Tet repressor-based transcriptional regulatory proteins” (Tet Systems Holding GmbH & Co. KG, priority 1999, dated 2009).
